Reference: EP3443010B1
Values joined by “and” are separate entries in the source; they are usually repeats but may differ in a detail not shown here. Identical values can stand only once.

Molecular target: recombinant hSIRPa (Sino Biologicals, reference 10975-H08H) (human) (UniProt P78324)
Test: ELISA, hSIRPa (Sino 10975-H08H) coated at 0.5 ug/ml, anti-mouse Fc detection

recombinant hSIRPa (Sino Biologicals, reference 10975-H08H) (human), sequence (P78324 other isoform, or with tags, fused parts or gaps H08H H08H): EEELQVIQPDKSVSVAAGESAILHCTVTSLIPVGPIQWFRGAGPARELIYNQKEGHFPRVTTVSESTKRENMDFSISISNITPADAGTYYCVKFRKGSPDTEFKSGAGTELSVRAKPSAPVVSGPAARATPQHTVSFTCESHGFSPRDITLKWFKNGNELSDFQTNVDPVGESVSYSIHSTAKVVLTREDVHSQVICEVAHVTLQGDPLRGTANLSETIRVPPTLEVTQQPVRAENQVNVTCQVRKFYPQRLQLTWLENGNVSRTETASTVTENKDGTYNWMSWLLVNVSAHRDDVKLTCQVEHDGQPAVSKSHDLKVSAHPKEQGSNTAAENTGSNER

EC50: 0.16 nM and 0.024 µg/mL
Substance: SE5A5 (antibody)
